Source: publication PMC10933773, “Phosphorylation by ATR triggers FANCD2 chromatin loading and activates the Fanconi anemia pathway”

How the values were obtained:
Conditions in all cases: protein: recombinant;recombinant; tags: FLAG-HA;His; copies: 1;1; label: radiolabelled; fork: 29 bp duplex (S3[1-29] with S4[22-50]), unpaired arms 21 nt (3' of S3) and 21 nt (5' of S4)
FANCD2-10D;FANCI = FANCD2-10D;FANCI (human?;human?, UniProt Q9BXW9;Q9NVI1 1-1451;1-1328, S64D;S178D;S319D;T596D;T608D;S705D;S1257D;S1401D;S1404D;S1418D|); assay: EMSA; stronger than WT and 10A; 25 mM Tris-HCl pH 7.5, 100 mM NaCl, 1 mM EDTA, 6% glycerol, 1 mM DTT, 1 nM DNA, room temperature 60-90 min; 4% PAGE 0.4x TBE at 4 C
FANCD2-10D;FANCI, sequence (Q9BXW9 whole entry S64D/S178D/S319D/T596D/T608D/S705D/S1257D/S1401D/S1404D/S1418D, chain 1 of 2): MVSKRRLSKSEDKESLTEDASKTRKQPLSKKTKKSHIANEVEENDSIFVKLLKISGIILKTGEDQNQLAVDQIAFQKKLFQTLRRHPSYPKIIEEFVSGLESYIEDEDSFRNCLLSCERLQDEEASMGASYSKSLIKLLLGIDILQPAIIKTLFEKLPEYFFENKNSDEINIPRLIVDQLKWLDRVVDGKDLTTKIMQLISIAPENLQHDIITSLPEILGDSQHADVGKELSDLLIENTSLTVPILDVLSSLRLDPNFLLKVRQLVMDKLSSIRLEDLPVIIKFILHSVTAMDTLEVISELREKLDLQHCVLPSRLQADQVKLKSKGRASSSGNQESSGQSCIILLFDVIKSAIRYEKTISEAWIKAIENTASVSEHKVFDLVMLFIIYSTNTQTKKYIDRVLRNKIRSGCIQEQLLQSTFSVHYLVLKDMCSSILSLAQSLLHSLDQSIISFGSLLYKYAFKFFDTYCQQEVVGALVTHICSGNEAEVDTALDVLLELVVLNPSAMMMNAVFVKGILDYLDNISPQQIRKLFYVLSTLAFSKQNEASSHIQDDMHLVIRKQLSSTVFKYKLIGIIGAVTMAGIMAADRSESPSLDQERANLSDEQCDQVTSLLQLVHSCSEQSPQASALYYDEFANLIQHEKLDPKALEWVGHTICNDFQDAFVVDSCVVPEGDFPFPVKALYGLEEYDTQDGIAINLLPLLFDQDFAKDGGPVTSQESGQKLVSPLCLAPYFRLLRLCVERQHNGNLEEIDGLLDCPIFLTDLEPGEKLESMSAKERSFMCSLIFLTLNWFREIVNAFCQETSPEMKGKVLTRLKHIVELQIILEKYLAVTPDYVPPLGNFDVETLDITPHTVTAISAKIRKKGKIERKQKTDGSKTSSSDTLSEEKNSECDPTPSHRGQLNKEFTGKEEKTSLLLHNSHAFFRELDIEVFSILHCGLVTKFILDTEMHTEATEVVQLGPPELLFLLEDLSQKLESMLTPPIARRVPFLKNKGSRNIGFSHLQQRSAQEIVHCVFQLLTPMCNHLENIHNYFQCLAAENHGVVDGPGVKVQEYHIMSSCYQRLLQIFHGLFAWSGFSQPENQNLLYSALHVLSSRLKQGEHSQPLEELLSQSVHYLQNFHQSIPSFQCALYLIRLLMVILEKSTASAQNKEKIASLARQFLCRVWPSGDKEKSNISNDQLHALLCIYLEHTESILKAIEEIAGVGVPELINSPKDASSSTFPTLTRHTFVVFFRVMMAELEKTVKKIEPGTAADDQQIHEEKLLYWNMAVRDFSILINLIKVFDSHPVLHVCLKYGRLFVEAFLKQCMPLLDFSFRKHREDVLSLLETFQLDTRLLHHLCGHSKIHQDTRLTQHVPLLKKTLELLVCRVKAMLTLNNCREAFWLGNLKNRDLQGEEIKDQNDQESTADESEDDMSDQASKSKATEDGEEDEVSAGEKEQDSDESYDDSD
FANCD2-10D;FANCI, sequence (Q9NVI1 whole entry, chain 2 of 2): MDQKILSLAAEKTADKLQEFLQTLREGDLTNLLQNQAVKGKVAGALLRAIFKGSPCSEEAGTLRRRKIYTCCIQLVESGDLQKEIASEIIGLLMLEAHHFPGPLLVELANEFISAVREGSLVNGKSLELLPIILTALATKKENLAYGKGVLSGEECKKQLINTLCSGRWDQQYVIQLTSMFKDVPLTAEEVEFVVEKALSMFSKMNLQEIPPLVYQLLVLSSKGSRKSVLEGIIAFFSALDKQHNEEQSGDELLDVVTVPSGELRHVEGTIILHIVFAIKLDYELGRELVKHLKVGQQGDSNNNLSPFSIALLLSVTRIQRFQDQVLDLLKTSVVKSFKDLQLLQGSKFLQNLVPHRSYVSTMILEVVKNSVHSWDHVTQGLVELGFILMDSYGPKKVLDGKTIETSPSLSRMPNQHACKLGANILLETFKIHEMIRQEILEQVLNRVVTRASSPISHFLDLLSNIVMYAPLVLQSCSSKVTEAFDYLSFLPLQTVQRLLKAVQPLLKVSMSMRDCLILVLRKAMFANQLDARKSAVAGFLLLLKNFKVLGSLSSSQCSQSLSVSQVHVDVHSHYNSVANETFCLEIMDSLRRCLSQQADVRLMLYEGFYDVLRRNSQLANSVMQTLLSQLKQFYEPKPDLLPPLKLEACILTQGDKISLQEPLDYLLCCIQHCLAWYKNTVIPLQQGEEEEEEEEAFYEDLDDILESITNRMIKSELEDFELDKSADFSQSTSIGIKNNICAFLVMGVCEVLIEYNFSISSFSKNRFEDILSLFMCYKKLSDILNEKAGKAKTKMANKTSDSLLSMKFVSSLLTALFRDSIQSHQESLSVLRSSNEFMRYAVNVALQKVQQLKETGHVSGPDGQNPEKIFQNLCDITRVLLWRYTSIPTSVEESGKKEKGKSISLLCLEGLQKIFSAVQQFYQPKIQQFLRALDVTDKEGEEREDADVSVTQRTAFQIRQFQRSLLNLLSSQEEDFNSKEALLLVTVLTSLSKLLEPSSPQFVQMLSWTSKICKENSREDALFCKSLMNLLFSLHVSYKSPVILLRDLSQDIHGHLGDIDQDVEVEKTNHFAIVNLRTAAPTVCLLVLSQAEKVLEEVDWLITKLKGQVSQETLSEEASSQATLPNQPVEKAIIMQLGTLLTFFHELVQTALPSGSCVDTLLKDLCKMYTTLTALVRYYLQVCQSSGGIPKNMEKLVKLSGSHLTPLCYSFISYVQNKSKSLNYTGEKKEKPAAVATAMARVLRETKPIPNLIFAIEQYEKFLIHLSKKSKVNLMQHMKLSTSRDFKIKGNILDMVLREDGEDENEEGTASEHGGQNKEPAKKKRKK

FANCD2 WT;FANCI = FANCD2 WT;FANCI (human?;human?, UniProt Q9BXW9;Q9NVI1 1-1451;1-1328, |); assay: EMSA; 25 mM Tris-HCl pH 7.5, 100 mM NaCl, 1 mM EDTA, 6% glycerol, 1 mM DTT, 1 nM DNA, room temperature 60-90 min; 4% PAGE 0.4x TBE at 4 C
FANCD2 WT;FANCI, sequence (Q9BXW9 whole entry, chain 1 of 2): as the sequence (Q9BXW9 whole entry S64D/S178D/S319D/T596D/T608D/S705D/S1257D/S1401D/S1404D/S1418D, chain 1 of 2) above, with D64S, D178S, D319S, D596T, D608T, D705S, D1257S, D1401S, D1404S, D1418S counted along it
FANCD2 WT;FANCI, sequence (Q9NVI1 whole entry, chain 2 of 2): as the sequence (Q9NVI1 whole entry, chain 2 of 2) above

FANCD2-10A;FANCI = FANCD2-10A;FANCI (human?;human?, UniProt Q9BXW9;Q9NVI1 1-1451;1-1328, S64A;S178A;S319A;T596A;T608A;S705A;S1257A;S1401A;S1404A;S1418A|); assay: as above
FANCD2-10A;FANCI, sequence (Q9BXW9 whole entry S64A/S178A/S319A/T596A/T608A/S705A/S1257A/S1401A/S1404A/S1418A, chain 1 of 2): as the sequence (Q9BXW9 whole entry S64D/S178D/S319D/T596D/T608D/S705D/S1257D/S1401D/S1404D/S1418D, chain 1 of 2) above, with D64A, D178A, D319A, D596A, D608A, D705A, D1257A, D1401A, D1404A, D1418A counted along it
FANCD2-10A;FANCI, sequence (Q9NVI1 whole entry, chain 2 of 2): as the sequence (Q9NVI1 whole entry, chain 2 of 2) above

Measured: binding result

B1: ICL14 Y-shaped DNA (stalled fork mimic) (dsDNA)
DNA 1: CATTGTGAATTCGCCTCTCTGTCTAGCCGAAGCTCGAAACGATCTTGTGC
DNA 2: GTCCATCAAAGTTCGACTGTGCGGCTAGACAGAGAGGCGAATTCACAATG
binds: all assays above
